# In patent publication US20110318789A1 (CAMBRIDGE ENTERPRISE, published 2011):
# B1: Mt-Ku (Mycobacterium tuberculosis Ku-like protein, ORF Rv0937c), recombinant histidine-tagged (other)
# chain: MRAIWTGSIAFGLVNVPVKVYSATADHDIRFHQVHAKDNGRIRYKRVCEACGEVVDYRDLARAYESGDGQMVAITDDDIASLPEERSREIEVLEFVPAADVDPMMFDRSYFLEPDSKSSKSYVLLAKTLAETDRMAIVHFTLRNKTRLAALRVKDFGKREVMMVHTLLWPDEIRDPDFPVLDQKVEIKPAELKMAGQVVDSMADDFNPDRYHDTYQEQLQELIDTKLEGGQAFTAEDQPRLLDEPEDVSDLLAKLEASVKARSKANSNVPTPP
# Experiments:
# [1] = biological target: Mt-Lig expressed in yeast as amino-terminal Myc epitope-NLS fusion protein (pNLS16) (Mycobacterium tuberculosis) (UniProt P9WNV3); assay: cell-based or functional assay
# Sequence of Mt-Lig expressed in yeast as amino-terminal Myc epitope-NLS fusion protein (pNLS16) (Mycobacterium tuberculosis) (P9WNV3 whole entry, the tested form may be a part): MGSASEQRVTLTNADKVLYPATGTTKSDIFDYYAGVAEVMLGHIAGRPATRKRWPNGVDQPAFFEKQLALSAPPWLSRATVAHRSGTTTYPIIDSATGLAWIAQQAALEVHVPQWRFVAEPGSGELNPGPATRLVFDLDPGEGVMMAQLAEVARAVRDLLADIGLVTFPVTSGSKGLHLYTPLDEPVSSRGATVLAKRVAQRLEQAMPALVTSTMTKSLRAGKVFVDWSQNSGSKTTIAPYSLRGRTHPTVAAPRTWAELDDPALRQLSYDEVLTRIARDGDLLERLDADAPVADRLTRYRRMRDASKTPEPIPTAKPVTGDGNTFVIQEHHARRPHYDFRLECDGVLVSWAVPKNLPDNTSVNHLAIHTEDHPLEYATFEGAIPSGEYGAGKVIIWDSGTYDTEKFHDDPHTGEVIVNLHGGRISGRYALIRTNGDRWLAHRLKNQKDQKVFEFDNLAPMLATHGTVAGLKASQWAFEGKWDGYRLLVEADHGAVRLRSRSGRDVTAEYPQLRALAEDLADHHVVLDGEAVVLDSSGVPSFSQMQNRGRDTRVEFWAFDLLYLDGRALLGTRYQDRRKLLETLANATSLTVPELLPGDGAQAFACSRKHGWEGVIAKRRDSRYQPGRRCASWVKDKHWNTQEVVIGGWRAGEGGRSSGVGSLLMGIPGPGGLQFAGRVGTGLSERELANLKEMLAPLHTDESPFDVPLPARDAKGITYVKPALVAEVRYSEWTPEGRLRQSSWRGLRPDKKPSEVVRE
# [2] = biological target: Mt-Lig (Mycobacterium tuberculosis ATP-dependent ligase, ORF Rv0938), recombinant histidine-tagged (Mycobacterium tuberculosis, UniProt P9WNV3 1-759); assay: cell-based or functional assay
# Sequence of Mt-Lig (Mycobacterium tuberculosis ATP-dependent ligase, ORF Rv0938), recombinant histidine-tagged (P9WNV3 whole entry, the tested form may be a part): as above
Molecule,NHEJ frequency in yku70 mutant yeast (suicide deletion assay) (% of the wild-type yeast level) [1],DNA ligation activity of Mt-Lig on dsDNA fragments upon addition of Mt-Ku [2],activity of Mt-Lig in an in vitro plasmid repair assay [2]
Mt-Ku expressed in yeast as amino-terminal Myc epitope-NLS fusion protein (pNLS15) (from UniProt P9WKD8 1-273),50,–,–
B1,–,> 30 fold,20 fold
